# Measured values published in the supplement of paper PMC7877785.
# ± gives the uncertainty stated by the source.
# Assay: self-splicing fitness, log relative to wild type (ln ratio); higher = more splicing; Tetrahymena group I intron in knt gene, E. coli kanamycin selection, DiMSum; sequences stand for … in CUCUCU…GGAGGGAAAAGUUAUCAGGCAUGCACCUGGUAGCUAGUCUUUAAACCAAUAGAUUGCAUCGGUUUAAAAGGCAAGACCGUCAAAUUGCGGGAAAGGGGUCAACAGCCGUUCAGUACCAAGUCUCAGGGGAAACUUUGAGAUGGCCUUGCAAAGGGUAUGGUAAUAAGCUGACGGACAUGGUCCUAACCACGCAGCCAAGUCCUAAGUCAACAGAUCUUCUGUUGAUAUGGAUGCAGUUCACAGACUAAAUGUCGGUCGGGGAAGAUGUAUUCUUCUCAUAAGAUAUAGUCGGACCUCUCCUUAAUGGGAGCUAGCGGAUGAAGUGAUGCAACACUGGAGCCGCUGGGAACUAAUUUGUAUGCGAAAGUAUAUUGAUUAGUUUUGGAGUACUCGUGGUCG
# How it was run: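 The eight P1ex-region nucleotides of an intron in the knt kanamycin-resistance gene on pET-22b(+) were all randomised and the library put into E. coli BL21(DE3). Six replicate transformations were grown overnight at 37°C or 30°C on LB agar with or without 25 μg/mL kanamycin, together with 100 μg/mL carbenicillin, 50 μM IPTG and 0.2% rhamnose. Colonies were pooled and amplicon-sequenced on an Illumina HiSeq 2500. Fitness from DiMSum is the error-weighted combination of wild-type-normalised replicate fold changes, kanamycin over none.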
Sequence,self-splicing fitness (ln) (30 °C),self-splicing fitness (ln) (37 °C)
AUUAAGCAAUAUUACGCAAA,-1.78 ± 0.23,-1.32 ± 0.18
AUUAAGCAAUAUUACGCCAA,-0.955 ± 0.21,-1.59 ± 0.25
AUUAAGCAAUAUUACGCCGG,-0.824 ± 0.19,-0.226 ± 0.25
AUUAAGCAAUAUUACGCCUA,-0.154 ± 0.086,0.195 ± 0.11
AUUAAGCAAUAUUACGCGCC,-1.18 ± 0.15,-0.862 ± 0.2
AUUAAGCAAUAUUACGCGCU,-0.542 ± 0.11,-0.561 ± 0.15
AUUAAGCAAUAUUACGCUAA,-1.89 ± 0.17,-0.434 ± 0.13
AUUAAGCAAUAUUACGCUCC,-1.04 ± 0.23,-0.859 ± 0.29
AUUAAGCAAUAUUACGGAUA,-2.12 ± 0.28,-1.99 ± 0.2
AUUAAGCAAUAUUACGGCAC,-1 ± 0.086,-0.297 ± 0.11
AUUAAGCAAUAUUACGGCCA,-0.171 ± 0.12,-0.598 ± 0.12
AUUAAGCAAUAUUACGGCCC,-0.404 ± 0.27,-0.419 ± 0.27
AUUAAGCAAUAUUACGGCUC,-0.973 ± 0.16,0.244 ± 0.17
AUUAAGCAAUAUUACGGGUG,-1.87 ± 0.13,-1.69 ± 0.16
AUUAAGCAAUAUUACGGUCA,-1.4 ± 0.14,-0.528 ± 0.14
AUUAAGCAAUAUUACGGUUU,-0.783 ± 0.07,0.254 ± 0.12
AUUAAGCAAUAUUACGUCAU,-1.51 ± 0.1,-0.717 ± 0.12
AUUCAGCAAUAUUACGAACC,-0.503 ± 0.16,-0.325 ± 0.2
AUUCAGCAAUAUUACGAACU,0.334 ± 0.13,0.543 ± 0.14
AUUCAGCAAUAUUACGACGG,-2.61 ± 0.19,-1.52 ± 0.17
AUUCAGCAAUAUUACGACUA,-0.646 ± 0.12,-0.106 ± 0.12
AUUCAGCAAUAUUACGAGCG,-1.08 ± 0.078,-0.441 ± 0.1
AUUCAGCAAUAUUACGAUAA,-0.72 ± 0.086,-0.295 ± 0.099
AUUCAGCAAUAUUACGAUAC,-1.17 ± 0.097,0.368 ± 0.11
AUUCAGCAAUAUUACGAUCA,-0.753 ± 0.088,-0.162 ± 0.11

Sequence,self-splicing fitness (ln) (30 °C),self-splicing fitness (ln) (37 °C)
AUUCAGCAAUAUUACGCCAC,–,-2.32 ± 0.42
AUUCAGCAAUAUUACGCCAG,-3.08 ± 0.22,-0.928 ± 0.22
AUUCAGCAAUAUUACGCCGA,0.0822 ± 0.39,-0.539 ± 0.39
AUUCAGCAAUAUUACGCGCA,-0.00177 ± 0.12,-0.315 ± 0.12
AUUCAGCAAUAUUACGCGCU,-2.15 ± 0.12,-0.796 ± 0.13
AUUCAGCAAUAUUACGCGGG,-2.38 ± 0.15,-0.332 ± 0.11
AUUCAGCAAUAUUACGCGUA,-1.16 ± 0.086,-0.145 ± 0.11
AUUCAGCAAUAUUACGCUCG,-1.11 ± 0.16,0.0381 ± 0.19
AUUCAGCAAUAUUACGGCCG,-1.09 ± 0.3,-0.945 ± 0.3
AUUCAGCAAUAUUACGGCCU,-1.03 ± 0.12,0.0851 ± 0.22
AUUCAGCAAUAUUACGGCGG,-1.77 ± 0.1,-1.77 ± 0.11
AUUCAGCAAUAUUACGGCUU,0.744 ± 0.12,-0.128 ± 0.13
AUUCAGCAAUAUUACGGGUC,-4.41 ± 0.46,-2.94 ± 0.24
AUUCAGCAAUAUUACGGUAA,-0.935 ± 0.086,-0.659 ± 0.078
AUUCAGCAAUAUUACGGUCC,-1.46 ± 0.11,-0.22 ± 0.12
AUUCAGCAAUAUUACGGUUU,-0.00618 ± 0.064,-0.247 ± 0.072
AUUCAGCAAUAUUACGUAAU,-0.328 ± 0.079,0.348 ± 0.11
AUUCAGCAAUAUUACGUACG,-1.91 ± 0.087,-0.205 ± 0.1
AUUCAGCAAUAUUACGUCAA,-0.663 ± 0.11,-0.912 ± 0.11
AUUCAGCAAUAUUACGUCGU,-0.283 ± 0.071,0.553 ± 0.085
AUUCAGCAAUAUUACGUGAG,0.00589 ± 0.07,0.325 ± 0.12
AUUCAGCAAUAUUACGUUAC,-2.76 ± 0.17,-1.2 ± 0.12
AUUGAGCAAUAUUACGAAGU,-1.71 ± 0.29,-1.72 ± 0.42
AUUGAGCAAUAUUACGAGGA,-1.8 ± 0.32,-2.41 ± 0.29
AUUGAGCAAUAUUACGAUGA,–,-2.08 ± 0.35

Sequence,self-splicing fitness (ln) (30 °C),self-splicing fitness (ln) (37 °C)
AUUGAGCAAUAUUACGCAAG,-3.27 ± 0.19,-1.31 ± 0.18
AUUGAGCAAUAUUACGCACC,-1.98 ± 0.3,-1.84 ± 0.43
AUUGAGCAAUAUUACGCAGU,-2.95 ± 0.36,-2.11 ± 0.38
AUUGAGCAAUAUUACGCCAC,-1.44 ± 0.42,–
AUUGAGCAAUAUUACGCCAU,-3.54 ± 0.24,-1.69 ± 0.19
AUUGAGCAAUAUUACGCUAA,-2.5 ± 0.16,-1.54 ± 0.16
AUUGAGCAAUAUUACGCUCG,-2.02 ± 0.33,-0.869 ± 0.22
AUUGAGCAAUAUUACGCUGC,-3.62 ± 0.47,-1.77 ± 0.41
AUUGAGCAAUAUUACGGAAA,-2.56 ± 0.3,-1.7 ± 0.25
AUUGAGCAAUAUUACGGAGA,–,-1.85 ± 0.47
AUUGAGCAAUAUUACGGGCG,–,-2.13 ± 0.34
AUUGAGCAAUAUUACGGUCG,-2.92 ± 0.36,-2.52 ± 0.45
AUUGAGCAAUAUUACGGUGG,-3.84 ± 0.46,-1.27 ± 0.15
AUUGAGCAAUAUUACGUAAA,-1.7 ± 0.15,-2.91 ± 0.34
AUUGAGCAAUAUUACGUCCU,-2.41 ± 0.19,-0.811 ± 0.15
AUUGAGCAAUAUUACGUCUG,-3.22 ± 0.21,-3 ± 0.26
AUUGAGCAAUAUUACGUUGU,-3.5 ± 0.14,-2.1 ± 0.16
AUUUAGCAAUAUUACGAAGC,-2.88 ± 0.23,-3.6 ± 0.46
AUUUAGCAAUAUUACGAGCA,-1.66 ± 0.25,-1.01 ± 0.18
AUUUAGCAAUAUUACGAUAU,-1.34 ± 0.097,-0.998 ± 0.11
AUUUAGCAAUAUUACGAUGC,-1.98 ± 0.23,-0.497 ± 0.21
AUUUAGCAAUAUUACGCAUA,-2.26 ± 0.12,-1.18 ± 0.12
AUUUAGCAAUAUUACGCGAC,-2.16 ± 0.27,-2.87 ± 0.47
AUUUAGCAAUAUUACGGCAU,-0.0305 ± 0.11,-0.15 ± 0.18
AUUUAGCAAUAUUACGGGGU,-3.47 ± 0.26,-2.32 ± 0.19

Sequence,self-splicing fitness (ln) (30 °C),self-splicing fitness (ln) (37 °C)
AUUUAGCAAUAUUACGGUAC,–,-1.07 ± 0.33
AUUUAGCAAUAUUACGGUAG,-3.72 ± 0.27,-2.03 ± 0.21
AUUUAGCAAUAUUACGUCGU,-1.7 ± 0.11,-1.33 ± 0.1
AUUUAGCAAUAUUACGUGCU,-2.78 ± 0.11,-0.856 ± 0.1
AUUUAGCAAUAUUACGUUAC,-2.76 ± 0.33,-2 ± 0.27
AUUUAGCAAUAUUACGUUAU,-2.2 ± 0.2,-1.95 ± 0.24
CAAAAGCAAUAUUACGAAUA,-2.77 ± 0.16,-1.5 ± 0.15
CAAAAGCAAUAUUACGAGGC,-4.77 ± 0.39,-2.34 ± 0.18
CAAAAGCAAUAUUACGAGUA,-3.32 ± 0.14,-1.89 ± 0.11
CAAAAGCAAUAUUACGAGUG,-0.995 ± 0.058,-0.101 ± 0.075
CAAAAGCAAUAUUACGAUAC,-2.95 ± 0.15,-2.53 ± 0.2
CAAAAGCAAUAUUACGCAAU,-4.03 ± 0.3,-1.93 ± 0.24
CAAAAGCAAUAUUACGCCUA,-2.75 ± 0.27,-1.51 ± 0.17
CAAAAGCAAUAUUACGCGCG,-0.71 ± 0.082,-0.59 ± 0.09
CAAAAGCAAUAUUACGCGUA,-2.01 ± 0.12,-1.32 ± 0.11
CAAAAGCAAUAUUACGCUCC,-2.23 ± 0.22,-1.99 ± 0.29
CAAAAGCAAUAUUACGCUCU,-1.6 ± 0.12,-1.63 ± 0.16
CAAAAGCAAUAUUACGGAAA,-2.67 ± 0.5,-2.08 ± 0.3
CAAAAGCAAUAUUACGGAAC,-2.55 ± 0.15,-2.87 ± 0.27
CAAAAGCAAUAUUACGGACU,-2.38 ± 0.12,-1.46 ± 0.12
CAAAAGCAAUAUUACGGUCC,-3.68 ± 0.29,-1.88 ± 0.21
CAAAAGCAAUAUUACGGUCG,0.0608 ± 0.056,-0.107 ± 0.063
